# Key:
# [1] = target: human carbonic anhydrase IX (CAIX) (human) (UniProt Q16790); assay: competition ELISA on coated CAIX; competitor: biotinylated chimeric Girentuximab IgG1
# [2] = target: human carbonic anhydrase IX (CAIX) (human) (UniProt Q16790); assay: SPR (Biacore T200), multicycle kinetics; purified antibody captured on Protein G chip, CAIX as analyte
substance,measurement,setting,value
"Chimeric Girentuximab (VH0/Vκ0) IgG4 (S228P, L235E) (antibody)",relative IC50 (IC50 of the variant divided by IC50 of the Girentuximab chimeric IgG1 antibody on the same plate),[1],< 2 fold
same,relative KD (KD of the variant divided by KD of the chimeric antibody on the same chip),[2],< 2 fold

# Source: patent US20220331457A1
